Assay [1] has as its target T1, mouse BMP receptor kinase protein m-BRK-3 (mouse), O35607.
T1 chain: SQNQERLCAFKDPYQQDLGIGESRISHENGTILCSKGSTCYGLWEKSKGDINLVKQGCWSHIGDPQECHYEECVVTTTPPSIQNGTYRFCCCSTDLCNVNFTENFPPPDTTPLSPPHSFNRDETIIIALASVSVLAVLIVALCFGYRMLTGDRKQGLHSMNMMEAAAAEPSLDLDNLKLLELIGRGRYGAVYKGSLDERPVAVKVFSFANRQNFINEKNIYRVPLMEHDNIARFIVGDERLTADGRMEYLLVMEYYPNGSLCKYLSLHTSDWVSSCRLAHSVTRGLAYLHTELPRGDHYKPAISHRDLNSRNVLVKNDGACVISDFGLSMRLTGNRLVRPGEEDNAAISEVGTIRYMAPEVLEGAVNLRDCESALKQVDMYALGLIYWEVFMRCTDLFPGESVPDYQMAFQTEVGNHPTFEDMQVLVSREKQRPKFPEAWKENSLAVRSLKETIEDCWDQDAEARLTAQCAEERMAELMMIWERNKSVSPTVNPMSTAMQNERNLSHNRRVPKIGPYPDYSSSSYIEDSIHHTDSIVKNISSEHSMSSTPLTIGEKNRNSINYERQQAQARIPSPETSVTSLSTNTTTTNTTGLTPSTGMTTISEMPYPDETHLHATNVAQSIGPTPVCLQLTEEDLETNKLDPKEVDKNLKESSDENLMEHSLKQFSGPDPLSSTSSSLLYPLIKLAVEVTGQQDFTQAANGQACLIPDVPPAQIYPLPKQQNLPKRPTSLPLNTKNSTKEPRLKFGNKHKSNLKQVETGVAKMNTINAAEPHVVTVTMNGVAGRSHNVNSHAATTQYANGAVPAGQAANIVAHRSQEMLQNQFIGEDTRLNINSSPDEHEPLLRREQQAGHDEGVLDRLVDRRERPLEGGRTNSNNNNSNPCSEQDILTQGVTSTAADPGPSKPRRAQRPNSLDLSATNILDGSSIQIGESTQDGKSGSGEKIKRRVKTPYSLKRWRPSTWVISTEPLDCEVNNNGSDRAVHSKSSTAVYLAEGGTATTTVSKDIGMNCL
Put plainly: whole cell binding of radiolabeled ligand, COS-1 cells transfected with pJT6-mBRK-3S or pJT6-mBRK-3L. The conditions noted are these: remark: other sources report otherwise; scale: times the level seen with mock transfected cells.

For assay [2], the target named is T2, BRK-2 co-expressed with t-BRK-3 (BRK-2/t-BRK-3 complex) (chicken; human, UniProt Q05438 14-502; Q13873 27-540).
T2 construct: Both receptors co-transfected into COS cells; also called BRK-2 and BRK-3 receptor complex; BRK-2 plus t-BRK-3
The experiment in a line: competition, 10 nM unlabeled ligand against [^125I]-BMP-4; crosslinking and immunoprecipitation with antiserum 1380.
Protocol: Following the crosslinking, cells are washed three times with ice-cold PBS, then lysed with 1 ml of RIP buffer (20 mM TrisCl, pH 8.0, 100 mM NaCl, 1 mM Na_2EDTA, 0.5% Nonidet P-40, 0.5% sodium deoxycholate, 10 mM sodium iodide, and 1% bovine serum albumin) for 10 min. The lysate is centrifuged in a microcentrifuge at 13,000 rpm for 10 min at 4° C. The supernatant is transferred to a fresh tube and made 0.1% in SDS. To remove any existing antibody present in the lysate, 50 µl of PANSORBIN (Calbiochem, La Jolla, Calif.; a 10% solution of *Staphylococcus aureus*) is added. After a 30 minute incubation at 4° C., the lysate is centrifuged as before, and the supernatant again transferred to a fresh tube.
To precipitate the complex of antigen:primary antibody, 25–50 µl of PANSORBIN is then added and incubated 30 min on ice. The complex is pelleted at 13,000 rpm for 10 min in a microcentrifuge and the supernatant discarded. The pellet is washed twice in RIP buffer containing 0.1% SDS, and once in TNEN buffer (20 mM Tris, pH 8.0, 100 mM NaCl, 1 mM EDTA, 0.5% NP-40). The pellet is resuspended in 25 µl of 1× sample loading buffer. (Alternatively, the pellet may be washed twice with TNEN buffer, with similar results.) The sample is boiled for 5 min, centrifuged for 5 min, and subjected to gel electrophoresis after loading of the samples onto a 7.5% SDS-polyacrylamide gel.

We go through two molecules from patent US7105290 (PROCTER AND GAMBLE, dated 2006).

T2 sequence (Q05438 14-502 limits assumed, one chain of several): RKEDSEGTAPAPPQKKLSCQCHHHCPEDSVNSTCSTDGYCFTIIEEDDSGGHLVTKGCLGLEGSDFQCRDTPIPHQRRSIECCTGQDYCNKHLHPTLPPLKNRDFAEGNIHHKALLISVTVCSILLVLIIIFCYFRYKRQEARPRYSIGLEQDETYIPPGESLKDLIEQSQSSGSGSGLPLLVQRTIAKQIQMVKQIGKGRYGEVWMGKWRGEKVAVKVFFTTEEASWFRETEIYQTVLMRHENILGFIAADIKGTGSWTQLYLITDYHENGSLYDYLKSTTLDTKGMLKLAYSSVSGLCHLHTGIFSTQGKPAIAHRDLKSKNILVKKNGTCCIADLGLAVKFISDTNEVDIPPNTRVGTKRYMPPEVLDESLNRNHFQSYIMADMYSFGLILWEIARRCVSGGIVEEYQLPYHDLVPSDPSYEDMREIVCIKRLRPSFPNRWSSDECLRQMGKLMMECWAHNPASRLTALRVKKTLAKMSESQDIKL

B1: bone morphogenetic protein 4, P12644 293-408 (ligand, UniProt P12644 293-408, looked up)
chain: SPKHHSQRARKKNKNCRRHSLYVDFSDVGWNDWIVAPPGYQAFYCHGDCPFPLADHLNSTNHAIVQTLVNSVNSSIPKACCVPTELSAISMLYLDEYDKVVLKNYQEMVVEGCGCR
modifications: here or on the partner: 125I-labelled when used as tracer ([^125I]-BMP-4; IODOBEADS or chloramine-T method); unlabeled when used as competitor
Molecule B1 had a specific binding of [^125I]-BMP-4 relative to mock transfected cells in assay [1] of 4 to 7.

B2: bone morphogenetic protein 2 (ligand, UniProt P12643 283-396, looked up)
chain: QAKHKQRKRLKSSCKRHPLYVDFSDVGWNDWIVAPPGYHAFYCHGECPFPLADHLNSTNHAIVQTLVNSVNSKIPKACCVPTELSAISMLYLDENEKVVLKNYQDMVVEGCGCR
notes: also called BMP-2
Consider B2, for which the binding result in assay [2] is on record as “binds”.
